Results taken from US8663616B2, “Enzymatic peracid generation for use in oral care products” (E I du Pont de Nemours and Company, priority 2010, dated 2014).
One block for each molecule: values may come before it.

Experiments:
[1] = Retention of perhydrolase on hydroxyapatite (SDS-PAGE band strength); type: binding; details: for Unbound (relative band strength): 10 μM enzyme, 0.5% hydroxyapatite, pH 7.2; for Unbound (relative band strength) / HAP Particles (relative band strength) / Wash1 (relative band strength) / Wash2 (relative band strength): relative to enzyme input = 1; for HAP Particles (relative band strength): enzyme retained on particles after washes
Procedure, shortened: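 Enzyme at 10 μM final was incubated 30 min with 0.5% hydroxyapatite nanoparticles in 10 mM phosphate pH 7.2, then centrifuged and washed three times. Input, wash supernatants and particles were run on SDS-PAGE with Coomassie-type staining; band strength scored relative to input (=1).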

[2] = Perhydrolase activity in solution, ABTS detection of peracetic acid (Example 7); type: biochemical; details: 10 μL of 0.625 μg/mL enzyme, triacetin, H2O2, pH 7.2, 5 min
Experimental: The detection of peracetic acid followed the method described in Pinkernell et. al. (Analyst, 1997, 122, 567) using colorimetric detection of 2,2′-azino-bis(3-ethylbenzothiazoline(-6-sulfonate (ABTS) oxidation by peracetic acid. Following the formation of peracetic acid with the addition of triacetin and hydrogen peroxide, 90 μL of solution was added to 10 μL of 0.1 M H3PO4 in a well plate. 50 μL of 1 M acetic acid, 50 μL of 0.5 g/L ABTS and 50 μL of 0.002 g/L of KI was added. The solution was allowed to develop for 5 min. The absorbance of the solution was measured at 405 nm using a microplate reader. The peracetic acid concentration was calculated based on a standard curve developed simultaneously using peracetic acid reagent solution.
The enzyme activity in solution was measured by making a solution of 0.625 μg/mL of each enzyme in 50 mM phosphate buffer, pH 7.2. 10 μL of enzyme solution was mixed with 90 μL buffer, 30 μL of 3% triacetin in water, 30 μL of 30 mM H2O2. The solution was incubated for 5 min. A 90 μL aliquot was removed for detection via ABTS oxidation as noted above.

[3] = T. maritima C277S/C277T constructs, peracetic acid when bound to bovine enamel (Example 11); type: biochemical; details: bovine enamel exposed to 10 μM enzyme, 4 washes; 100 mM triacetin, 100 mM H2O2, 30 min, 37° C.; no enzyme 570
Procedure, shortened: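 Enamel blocks equilibrated in 10 mM potassium phosphate, pH 7.2, were incubated with 10 μM enzyme for 30 min at 37° C and washed free of unbound enzyme. Bound enzyme then reacted 30 min at 37° C with 100 mM H2O2 and 100 mM triacetin in 100 mM phosphate, pH 7.2. Peracetic acid was measured by ABTS oxidation (A405) against a standard curve; mean of 3 blocks.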

[4] = Maximum peracetic acid by targeted and untargeted CE-7 perhydrolase with sucrose octaacetate; type: biochemical; details: substrate sucrose octaacetate; same reaction conditions as Table 20
Experimental: These ester substrates were tested for peracetic acid production using a targeted C277S perhydrolase variant, EZ-7 under the same reaction conditions used to generate date for Table 20. Peracetic acid production using propylene glycol diacetate or sucrose octaacetate with the EZ-7 perhydrolase system is shown in Table 21.

[5] = Two-step bleaching of coffee-tea stained bovine enamel, repeated rounds (Example 17); design: scale not given here; details: for Whiteness Index Rd1: after round 1 of the 2-step process; for Whiteness Index Rd2: after round 2; for Whiteness Index Rd3: after round 3; for Whiteness Index Rd4: after round 4; for Whiteness Index Rd5: after round 5; for ΔWI: before to round 5; for Whiteness Index Before: two-step: 20 μM enzyme (or buffer) 10 min 37° C., rinsed, then 100 mM triacetin, 100 mM H2O2 10 min 37° C., before treatment
Experimental: Bovine enamel incisors were prepared as indicated in Example 1. The stained enamel blocks were embedded in SILLY PUTTY® (Crayola LLC, Easton, Pa.) filled well, a 24-well plate to protect the dentin backside from solution exposure. A solution of 20 μM of each enzyme in 10 mM phosphate buffer, pH 7.2 was prepared and 500 μL of the enzyme solution was added to each enamel blocks and incubated for 10 min at 37° C. The enamel block was then rinsed three times with an additional 500 μL of buffer each time. The enamel blocks were transferred and embedded in a fresh putty well for the whitening process. A solution (200 μL) containing 100 mM phosphate buffer, 100 mM triacetin, 100 mM H2O2, pH 7.2 was added to the enamel and incubated for 10 min at 37° C. The enamel block was removed from the well using forceps, then rinsed and stored in a 1.5 mL of water filled well for color measurements. The 2-step process was repeated 5 times (50 min total). Each sample data point represents 2 repeats of independent enamel blocks.

[6] = Peracetic acid generated after each round of two-step whitening, ABTS (Example 17); type: biochemical, bovine; details: for PAA (ppm) generated after each round of whitening, Rd2: round 2; for PAA (ppm) generated after each round of whitening, Rd3: round 3; for PAA (ppm) generated after each round of whitening, Rd4: round 4; for PAA (ppm) generated after each round of whitening, Rd5: round 5; for PAA (ppm) generated after each round of whitening, Rd1: step 1 enzyme or buffer, step 2 triacetin/H2O2, round 1
Experimental: The samples were diluted 1:100 with 100 mM phosphate buffer and added to ABTS detection reagent as noted in Example 8. Each sample data point represents 2 repeats of independent enamel blocks.

Unbound (relative band strength) [1]: 0.5
HAP Particles (relative band strength) [1]: 0.5
Wash1 (relative band strength) [1]: 0.01
Wash2 (relative band strength) [1]: 0.0
Maximum Peracetic Acid (ppm), Sucrose octaacetate [4]: 2070 ppm
B1: EZ-7: C277S-link1-DenP308-H6, SEQ ID NO: 429 (protein)
chain: MAFFDLPLEELKKYRPERYEEKDFDEFWEETLAESEKFPLDPVFERMESHLKTVEAYDVTFSGYRGQRIKGWLLVPKLEEEKLPCVVQYIGYNGGRGFPHDWLFWPSMGYICFVMDTRGQGSGWLKGDTPDYPEGPVDPQYPGFMTRGILDPRTYYYRRVFTDAVRAVEAAASFPQVDQERIVIAGGSQGGGIALAVSALSKKAKALLCDVPFLCHFRRAVQLVDTHPYAEITNFLKTHRDKEEIVFRTLSYFDGVNFAARAKIPALFSVGLMDNISPPSTVFAAYNYYAGPKEIRIYPYNNHEGGGSFQAVEQVKFLKKLFEKGGPGSGGAGSPGSAGGPGSTKPPRTPTANTSRPHHNFGSGGGGSPHHHHHH
Avg Absorbance 405 nm Background subtracted [2]: 1.619
Peracetic acid (ppm) On Enamel [3]: 1040 ppm
Whiteness Index Rd1 [5]: −106.7
Whiteness Index Rd2 [5]: −96.0
Whiteness Index Rd3 [5]: −88.7
Whiteness Index Rd4 [5]: −85.7
Whiteness Index Rd5 [5]: −76.6
ΔWI [5]: 44.2
Whiteness Index Before [5]: −120.8
PAA (ppm) generated after each round of whitening, Rd2 [6]: 496.7 ppm
PAA (ppm) generated after each round of whitening, Rd3 [6]: 716.5 ppm
PAA (ppm) generated after each round of whitening, Rd4 [6]: 998.5 ppm
PAA (ppm) generated after each round of whitening, Rd5 [6]: 1224.5 ppm
PAA (ppm) generated after each round of whitening, Rd1 [6]: 383.5 ppm

Unbound (relative band strength) [1]: 0.98
binding to / retention on hydroxyapatite (in words) ([1]; after washes): does not bind to hydroxyapatite
HAP Particles (relative band strength) [1]: 0.01
Wash1 (relative band strength) [1]: 0.01
Wash2 (relative band strength) [1]: 0.0
Maximum Peracetic Acid (ppm), Sucrose octaacetate [4]: 2768 ppm
B2: EZ-1: Thermotoga maritima acetyl xylan esterase variant C277S, untargeted perhydrolase, SEQ ID NO: 424 (protein, listed as Thermotoga maritima)
chain: MAFFDLPLEELKKYRPERYEEKDFDEFWEETLAESEKFPLDPVFERMESHLKTVEAYDVTFSGYRGQRIKGWLLVPKLEEEKLPCVVQYIGYNGGRGFPHDWLFWPSMGYICFVMDTRGQGSGWLKGDTPDYPEGPVDPQYPGFMTRGILDPRTYYYRRVFTDAVRAVEAAASFPQVDQERIVIAGGSQGGGIALAVSALSKKAKALLCDVPFLCHFRRAVQLVDTHPYAEITNFLKTHRDKEEIVFRTLSYFDGVNFAARAKIPALFSVGLMDNISPPSTVFAAYNYYAGPKEIRIYPYNNHEGGGSFQAVEQVKFLKKLFEKG
Avg Absorbance 405 nm Background subtracted [2]: 1.830
Peracetic acid (ppm) On Enamel [3]: 628 ppm
Whiteness Index Rd1 [5]: −129.5
Whiteness Index Rd2 [5]: −129.5
Whiteness Index Rd3 [5]: −129.2
Whiteness Index Rd4 [5]: −125.1
Whiteness Index Rd5 [5]: −122.1
ΔWI [5]: 17.9
Whiteness Index Before [5]: −140.0
PAA (ppm) generated after each round of whitening, Rd2 [6]: 41.0 ppm
PAA (ppm) generated after each round of whitening, Rd3 [6]: 30.2 ppm
PAA (ppm) generated after each round of whitening, Rd4 [6]: 39.3 ppm
PAA (ppm) generated after each round of whitening, Rd5 [6]: 47.1 ppm
PAA (ppm) generated after each round of whitening, Rd1 [6]: 33.2 ppm
